Assay results: publication PMC10097602, “Ubiquitin-like conjugation by bacterial cGAS enhances anti-phage defence” (Nature, 2023)

B1: Vs.4 from phage T4 (residues 1-88) (natural protein, UniProt P13314 1-88, looked up)
chain: MIEDIKGYKPHTEEKIGKVNAIKDAEVRLGLIFDALYDEFWEALDNCEDCEFAKNYAESLDQLTIAKTKLKEASMWACRAVFQPEEKY
notes: Vs.4, protein of unknown function of bacteriophage T4, residues 1-88; T4 proteome UniProt UP000009087; Hexamer by crystal structure and analytical ultracentrifugation; also called Vs.4 (WT); wild-type Vs.4; source: E. coli BL21(DE3)pLysS, purified (Ni-NTA, SUMO tag cleaved with ULP1, size-exclusion chromatography)
B2: Vs.4 F33A (natural protein, phage T4, UniProt P13314 1-88, looked up)
chain: MIEDIKGYKPHTEEKIGKVNAIKDAEVRLGLIADALYDEFWEALDNCEDCEFAKNYAESLDQLTIAKTKLKEASMWACRAVFQPEEKY
notes: Vs.4 of bacteriophage T4, residues 1-88, with F33A; source: E. coli BL21(DE3)pLysS, purified (Ni-NTA, SUMO tag cleaved with ULP1, size-exclusion chromatography)

Tests used:
Vs.4 = target: T1, Vs.4 (Tequatrovirus T4, UniProt P13314); assay: isothermal titration calorimetry (VP-ITC), global fit of three titrations; type: binding
T1 construct: gene acb2; residues 1-88, full length; SUMO fusion with His6, tag cleaved by ULP1; E. coli BL21(DE3)pLysS
T1 sequence (P13314 1-88): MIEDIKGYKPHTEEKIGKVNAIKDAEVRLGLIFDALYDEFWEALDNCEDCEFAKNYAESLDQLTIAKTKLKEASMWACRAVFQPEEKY

cGAMP = assay: ITC; settings: for Kd: parent: 31.4 nM; for other: ΔH: parent: -24.9 kcal/mol; for other: ΔS: parent: -50.6
[1] = target: the molecule itself; assay: crystal structure; Vs.4 with 3'3'-cGAMP (1.2:1 molar ratio), hanging drops, 7% PEG8000, 0.1 M imidazole pH 6.3, 0.2 mM calcium acetate, room temperature; quaternary structure confirmed with PISA
[2] = target: the molecule itself; assay: AUC; sedimentation velocity, 15 µM of each protein in 20 mM Tris and 150 mM NaCl; hexamer
[3] = high incompetent fraction (0.496)

Molecule	Kd (cGAMP)	other: ΔH (cGAMP)	other: ΔS (cGAMP)	further results
Nc1nc2c(ncn2[C@@H]2O[C@@H]3COP(=O)(O)O[C@H]4[C@@H](O)[C@H](n5cnc6c(N)ncnc65)O[C@@H]4COP(=O)(O)O[C@H]3[C@H]2O)c(=O)[nH]1 [3′3′-cGAMP]	–	–	–	Kd (Vs.4): 31.4 nM
Vs.4 from phage T4 (residues 1-88) (from UniProt P13314) F33A	–	–	–	Kd (cGAMP; [3]): 25.3 nM; other: ΔH (cGAMP; [3]): -24.3 kcal/mol; other: ΔS (cGAMP; [3]): -48.8 cal/mol·K
Vs.4 from phage T4 (residues 1-88) (from UniProt P13314) F82A	859 nM	-23.3 kcal/mol	-51.6 cal/mol·K	–
Vs.4 from phage T4 (residues 1-88) (from UniProt P13314) A77Y	1100 nM	-5 kcal/mol	10.3 cal/mol·K	–
Vs.4 from phage T4 (residues 1-88) (from UniProt P13314) Y8A	158 nM	-10.6 kcal/mol	-5 cal/mol·K	–
B1	–	–	–	stoichiometry N [1]: 6
B2	–	–	–	binding result [2]: binds
